Test results from patent US20100022459A1 (TEL AVIV UNIVERSITY FUTURE TECHNOLOGY DEVELOPMENT L P, published 2010).
Ends that are not written are not given here. cellulose membrane = cellulose membrane support bound via the C-terminal amino acid

Target: MBP (UniProt P0AEX9 27-392 = MBP)
Test: hIAPP peptide array incubated with MBP alone, immunoblot
Procedure: The cellulose membrane was then washed repeatedly with 0.05% Tween 20 in TBS. […] HRP-conjugated goat anti mouse antibodies (Jackson Laboratories, USA) were used as a secondary antibody. Immunoblots were developed using the Renaissance western blot Chemiluminescence Reagent (NEN, USA) according to Manufacturer's instructions and signal was quantified using densitometry. Regeneration of the cellulose membrane for reuse was carried out by sequential washing with Regeneration buffer I including 62.5 mM Tris, 2% SDS, 100 Mm 2-mercaptoethanol, pH 6.7, and Regeneration buffer II including 8 M urea, 1% SDS, 0.1% 2-mercaptoethanol. Efficiency of the washing steps was monitored by contacting the membrane with the chemiluminescence reagent, as described.

| Binder | binding result |
| --- | --- |
| Ac-QRLANFLVHS (also: C-terminal residue bound to cellulose membrane, 61-88; also called decamer of the hIAPP peptide array) [hIAPP10-19] | no binding |
| Ac-ANFLVHSSNN-{cellulose membrane} (61-88; also called decamer of the hIAPP peptide array) [hIAPP13-22] | no binding |
| Ac-NNFGAILSST (also: C-terminal residue bound to cellulose membrane, 61-88; also called decamer of the hIAPP peptide array) [hIAPP21-30] | no binding |
| Ac-TATCATQRLA-{cellulose membrane} (61-88; also called decamer of the hIAPP peptide array) [hIAPP4-13] | no binding |
| Ac-LSSTNVGSNT-{cellulose membrane} (61-88; also called decamer of the hIAPP peptide array) [hIAPP27-36] | no binding |
| Ac-HSSNNFGAIL-{cellulose membrane} (61-88; also called decamer of the hIAPP peptide array) [hIAPP18-27] | no binding |
| Ac-SSTNVGSNTY-{cellulose membrane} (61-88; also called decamer of the hIAPP peptide array) [hIAPP28-37] | no binding |
| Ac-ATQRLANFLV (also: C-terminal residue bound to cellulose membrane, 61-88; also called decamer of the hIAPP peptide array) [hIAPP8-17] | no binding |
| Ac-NFLVHSSNNF-{cellulose membrane} (61-88; also called decamer of the hIAPP peptide array) [hIAPP14-23] | no binding |
| Ac-KCNTATCATQ (cysteine pairing not given here; also: C-terminal residue bound to cellulose membrane, 61-88 (hIAPP1-10 ... hIAPP28-37); also called decamer of the hIAPP peptide array) [hIAPP1-10] | no binding |
| Ac-LANFLVHSSN (also: C-terminal residue bound to cellulose membrane, 61-88; also called decamer of the hIAPP peptide array) [hIAPP12-21] | no binding |
| Ac-FGAILSSTNV-{cellulose membrane} (61-88; also called decamer of the hIAPP peptide array) [hIAPP23-32] | no binding |
| Ac-ILSSTNVGSN-{cellulose membrane} (61-88; also called decamer of the hIAPP peptide array) [hIAPP26-35] | no binding |
| Ac-NTATCATQRL (also: C-terminal residue bound to cellulose membrane, 61-88; also called decamer of the hIAPP peptide array) [hIAPP3-12] | no binding |
| Ac-AILSSTNVGS-{cellulose membrane} (61-88; also called decamer of the hIAPP peptide array) [hIAPP25-34] | no binding |
| Ac-GAILSSTNVG-{cellulose membrane} (61-88; also called decamer of the hIAPP peptide array) [hIAPP24-33] | no binding |
| Ac-SSNNFGAILS (also: C-terminal residue bound to cellulose membrane, 61-88; also called decamer of the hIAPP peptide array) [hIAPP19-28] | no binding |
| Ac-LVHSSNNFGA-{cellulose membrane} (61-88; also called decamer of the hIAPP peptide array) [hIAPP16-25] | no binding |
| Ac-ATCATQRLAN-{cellulose membrane} (61-88; also called decamer of the hIAPP peptide array) [hIAPP5-14] | no binding |
| Ac-VHSSNNFGAI-{cellulose membrane} (61-88; also called decamer of the hIAPP peptide array) [hIAPP17-26] | no binding |
| Ac-NFGAILSSTN-{cellulose membrane} (61-88; also called decamer of the hIAPP peptide array) [hIAPP22-31] | no binding |
| Ac-CATQRLANFL (also: C-terminal residue bound to cellulose membrane, 61-88; also called decamer of the hIAPP peptide array) [hIAPP7-16] | no binding |
| Ac-TQRLANFLVH (also: C-terminal residue bound to cellulose membrane, 61-88; also called decamer of the hIAPP peptide array) [hIAPP9-18] | no binding |
| Ac-CNTATCATQR (cysteine pairing not given here; also: C-terminal residue bound to cellulose membrane, 61-88; also called decamer of the hIAPP peptide array) [hIAPP2-11] | no binding |
| Ac-TCATQRLANF-{cellulose membrane} (61-88; also called decamer of the hIAPP peptide array) [hIAPP6-15] | no binding |
| Ac-RLANFLVHSS (also: C-terminal residue bound to cellulose membrane, 61-88; also called decamer of the hIAPP peptide array) [hIAPP11-20] | no binding |
| Ac-FLVHSSNNFG-{cellulose membrane} (61-88; also called decamer of the hIAPP peptide array) [hIAPP15-24] | no binding |
